Source: patent US20190142963A1 (INDIANA UNIVERSITY RESEARCH AND TECHNOLOGY, published 2019)
Where two headings read alike, the source gives them in different places. Non-standard residues stand in square brackets, D forms with d. No end group written: not given here.

T1: human Klotho β (human, UniProt Q86Z14 1-1044)
T1 sequence (looked up): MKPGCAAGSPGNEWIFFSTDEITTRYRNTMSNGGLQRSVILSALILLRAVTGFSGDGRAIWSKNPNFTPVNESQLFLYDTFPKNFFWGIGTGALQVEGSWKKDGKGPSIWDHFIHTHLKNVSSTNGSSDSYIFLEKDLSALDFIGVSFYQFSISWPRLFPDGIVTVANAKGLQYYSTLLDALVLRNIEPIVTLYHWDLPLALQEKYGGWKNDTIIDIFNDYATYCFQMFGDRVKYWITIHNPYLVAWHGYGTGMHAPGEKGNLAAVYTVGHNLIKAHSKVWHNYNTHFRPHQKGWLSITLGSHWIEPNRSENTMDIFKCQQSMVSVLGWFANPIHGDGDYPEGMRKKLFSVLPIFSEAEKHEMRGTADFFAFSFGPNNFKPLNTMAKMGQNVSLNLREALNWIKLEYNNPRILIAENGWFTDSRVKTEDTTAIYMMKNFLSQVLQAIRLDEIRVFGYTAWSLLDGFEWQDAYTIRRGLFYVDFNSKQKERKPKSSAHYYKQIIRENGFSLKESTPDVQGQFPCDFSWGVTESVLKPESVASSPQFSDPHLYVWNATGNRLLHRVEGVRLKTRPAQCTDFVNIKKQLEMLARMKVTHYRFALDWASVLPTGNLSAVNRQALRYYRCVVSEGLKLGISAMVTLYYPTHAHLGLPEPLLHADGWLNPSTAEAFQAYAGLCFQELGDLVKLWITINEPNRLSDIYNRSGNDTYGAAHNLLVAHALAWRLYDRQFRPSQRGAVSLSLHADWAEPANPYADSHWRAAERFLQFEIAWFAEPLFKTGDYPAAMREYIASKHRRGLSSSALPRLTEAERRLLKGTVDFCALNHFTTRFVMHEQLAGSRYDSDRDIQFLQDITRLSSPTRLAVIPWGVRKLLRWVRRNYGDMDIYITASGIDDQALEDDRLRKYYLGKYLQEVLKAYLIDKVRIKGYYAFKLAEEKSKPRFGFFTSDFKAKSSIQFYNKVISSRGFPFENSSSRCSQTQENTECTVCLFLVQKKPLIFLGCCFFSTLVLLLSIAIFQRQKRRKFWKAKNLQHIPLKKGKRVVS


Key:
Assay in all cases: cell-based or functional assay
mouse Klotho β (mouse) = mouse Klotho β (mouse) (UniProt Q99N32)
human Klotho β [1] = target: T1, human Klotho β
human Klotho β [2] = target: T1, human Klotho β; remark: listed apart in the source
human Klotho β [3] = target: T1, human Klotho β; remark: listed apart in the source
human Klotho β [4] = target: T1, human Klotho β; remark: listed apart in the source
human Klotho β [5] = target: T1, human Klotho β; remark: listed apart in the source
human Klotho β [6] = target: T1, human Klotho β; remark: listed apart in the source
human Klotho β [7] = target: T1, human Klotho β; remark: listed apart in the source

Sequence of mouse Klotho β (mouse) (Q99N32 whole entry): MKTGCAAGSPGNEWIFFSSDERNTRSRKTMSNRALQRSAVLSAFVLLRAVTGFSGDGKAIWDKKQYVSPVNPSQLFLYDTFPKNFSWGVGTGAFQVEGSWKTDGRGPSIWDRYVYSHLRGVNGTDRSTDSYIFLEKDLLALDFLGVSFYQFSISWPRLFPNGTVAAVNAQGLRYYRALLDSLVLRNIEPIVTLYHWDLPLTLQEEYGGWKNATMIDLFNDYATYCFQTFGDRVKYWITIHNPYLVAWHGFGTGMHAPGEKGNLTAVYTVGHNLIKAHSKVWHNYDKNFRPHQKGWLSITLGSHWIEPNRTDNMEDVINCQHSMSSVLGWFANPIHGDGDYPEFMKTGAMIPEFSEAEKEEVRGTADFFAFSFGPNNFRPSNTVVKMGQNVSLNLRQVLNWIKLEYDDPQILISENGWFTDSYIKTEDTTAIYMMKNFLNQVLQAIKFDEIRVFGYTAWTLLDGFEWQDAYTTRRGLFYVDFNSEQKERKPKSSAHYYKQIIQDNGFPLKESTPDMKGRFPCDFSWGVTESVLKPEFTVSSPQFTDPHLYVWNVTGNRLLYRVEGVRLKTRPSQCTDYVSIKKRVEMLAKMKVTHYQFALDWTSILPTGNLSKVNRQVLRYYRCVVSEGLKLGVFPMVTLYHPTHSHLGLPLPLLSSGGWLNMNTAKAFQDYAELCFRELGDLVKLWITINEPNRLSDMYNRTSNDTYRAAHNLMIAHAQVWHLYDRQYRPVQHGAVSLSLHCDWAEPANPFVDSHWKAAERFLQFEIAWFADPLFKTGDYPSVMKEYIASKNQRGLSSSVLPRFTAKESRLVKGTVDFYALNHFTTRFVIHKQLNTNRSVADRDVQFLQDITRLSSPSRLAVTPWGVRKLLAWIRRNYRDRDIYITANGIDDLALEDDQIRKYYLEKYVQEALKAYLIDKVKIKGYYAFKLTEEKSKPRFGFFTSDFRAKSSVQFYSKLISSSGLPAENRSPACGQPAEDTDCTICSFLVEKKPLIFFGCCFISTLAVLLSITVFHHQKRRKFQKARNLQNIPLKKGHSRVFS

Molecule | IC-50 of antagonism of FGF21 (pErk1/2, 293 HEK hKLB cells) (human Klotho β [3]) [µM] | % max activity of antagonism of FGF21 (pErk1/2, 293 HEK hKLB cells) (human Klotho β [4]) [%] | IC-50 of antagonism of FGF21 (pErk1/2, 293 HEK hKLB cells) (human Klotho β [4]) | further results
FGF19 (from UniProt O95750 25-216) (ligand) | – | – | – | potency (agonism) in cells that overexpressed mouse KLB (FIG. 11B) (mouse Klotho β (mouse)): 25.7; % maximal activity, Erk1/2 phosphorylation in 293T HEK hKLB cells (FIG. 9B) (human Klotho β [1]): 27%; EC-50 of Erk1/2 phosphorylation in 293T HEK hKLB cells (FIG. 9B) (human Klotho β [1]): 148 nM; potency (agonism) in cells that overexpressed human KLB (FIG. 11A) (human Klotho β [1]): 65.8
LETDSMDPF[dS]LVTGLEAVRSPSFEA-NH2 [FGF19 S10A26] | – | – | – | IC50 of antagonism of FGF21 (assay of Example 1) (human Klotho β [2]): 10.9 nM
PPDVGSSDPLSMVGPSQGRSPAYAS [FGF21 25mer A22] | 0.67 | 78.5 | 752 nM | –
PPDVGSSDPLSMVGPSQGRSPSAAS [FGF21 25mer A23] | 4.16 | 73.6 | 3.98 µM | –
PPDVGSSDPLSMVGPSQARSPSYAS [FGF21 25mer A18] | – | 103 | 139 nM | IC-50 of antagonism of FGF21 (pErk1/2, 293 HEK hKLB cells) (human Klotho β [5]): 0.15 µM
PPDVGSSDPLSMVGPSQGRSPSYAS-NH2 [FGF21 157-181] | – | 100 | 168 nM | IC50 of antagonism of FGF21 (assay of Example 1) (human Klotho β [2]): 182 nM; % Activity vs C25 (human Klotho β [6]): 100%; IC50 of antagonism of FGF21 (assay of Example 1) (human Klotho β [6]): 283 nM; IC-50 of antagonism of FGF21 (pErk1/2, 293 HEK hKLB cells) (human Klotho β [5]): 0.16 µM
APDVGSSDPLSMVGPSQGRSPSYAS [FGF21 25mer A1] | – | 100 | 33 nM | IC-50 of antagonism of FGF21 (pErk1/2, 293 HEK hKLB cells) (human Klotho β [5]): 0.39 µM
LETDSMDPF[dS]LVTGLEAVRSPSFES-NH2 [FGF19 S10] | – | – | – | IC50 of antagonism of FGF21 (assay of Example 1) (human Klotho β [2]): 194 nM
PPDVGSSDPLSMVGPSQG[dR]SPSYAS-NH2 [FGF21 D19] | – | – | – | IC50 of antagonism of FGF21 (assay of Example 1) (human Klotho β [2]): 52.5 nM; % Activity vs C25 (human Klotho β [6]): 271%; IC50 of antagonism of FGF21 (assay of Example 1) (human Klotho β [6]): 152 nM
PADVGSSDPLSMVGPSQGRSPSYAS [FGF21 25mer A2] | – | 98.5 | 137 nM | IC-50 of antagonism of FGF21 (pErk1/2, 293 HEK hKLB cells) (human Klotho β [5]): 0.62 µM
PPDVGSSDPLSMVGPSQGRSPSYAA [FGF21 25mer A25] | – | 99 | 45 nM | IC-50 of antagonism of FGF21 (pErk1/2, 293 HEK hKLB cells) (human Klotho β [5]): 0.06 µM
PPDVGSSDPL[dS]MVGPSQGRSPSYAS-NH2 [FGF21 D11] | – | – | – | IC50 of antagonism of FGF21 (assay of Example 1) (human Klotho β [2]): 19.9 nM; % Activity vs C25 (human Klotho β [6]): 596%; IC50 of antagonism of FGF21 (assay of Example 1) (human Klotho β [6]): 57.3 nM
PPDVGSSDPLSMVGPSQGRSASYAS [FGF21 25mer A21] | 2.57 | 70.5 | 2.24 µM | –
PPAVGSSDPLSMVGPSQGRSPSYAS [FGF21 25mer A3] | 1.5 | 87.8 | 2.28 µM | –
PPDVGSSDPLSMAGPSQGRSPSYAS [FGF21 25mer A13] | 4.6 | 87.9 | 2.11 µM | –
FGF21-19 K194A (ligand) HPIPDSSPLLQFGGQVRQRYLYTDDAQQTEAHLEIREDGTVGGAADQSPESLLQLKALKPGVIQILGVKTSRFLCQRPDGALYGSLHFDPEACSFRELLLEDGYNVYQSEAHGLPLHLPGNKSPHRDPAPRGPARFLPLPGLPPALPEPPGILAPQPLETDSMDPFGLVTGLEAVRSPSFEA | – | – | – | potency as agonist relative to native FGF21 (human Klotho β [7]): ~5 fold
PPDVGSSDPL[dS]MVGPSQG[dR]SPSYAS-NH2 [FGF21 D11D19] | – | – | – | IC50 of antagonism of FGF21 (assay of Example 1) (human Klotho β [2]): 14.1 nM
LETDSMDPFGLVTGLEAVRSPSFEA [FGF19 A26] | – | – | – | IC50 of antagonism of FGF21 (assay of Example 1) (human Klotho β [2]): 17.9 nM
PPDVGASDPLSMVGPSQGRSPSYAS [FGF21 25mer A6] | 2.44 | 89.2 | 2.65 µM | –
FGF21 (ligand) HPIPDSSPLLQFGGQVRQRYLYTDDAQQTEAHLEIREDGTVGGAADQSPESLLQLKALKPGVIQILGVKTSRFLCQRPDGALYGSLHFDPEACSFRELLLEDGYNVYQSEAHGLPLHLPGNKSPHRDPAPRGPARFLPLPGLPPALPEPPGILAPQPPDVGSSDPLSMVGPSQGRSPSYAS | – | – | – | % maximal activity, Erk1/2 phosphorylation in 293T HEK hKLB cells (FIG. 9A) (human Klotho β [7]): 100%
FGF21 D164A (ligand) HPIPDSSPLLQFGGQVRQRYLYTDDAQQTEAHLEIREDGTVGGAADQSPESLLQLKALKPGVIQILGVKTSRFLCQRPDGALYGSLHFDPEACSFRELLLEDGYNVYQSEAHGLPLHLPGNKSPHRDPAPRGPARFLPLPGLPPALPEPPGILAPQPPDVGSSAPLSMVGPSQGRSPSYAS | – | – | – | % maximal activity, Erk1/2 phosphorylation in 293T HEK hKLB cells (FIG. 9A) (human Klotho β [7]): 6%
FGF21 P171A (ligand) HPIPDSSPLLQFGGQVRQRYLYTDDAQQTEAHLEIREDGTVGGAADQSPESLLQLKALKPGVIQILGVKTSRFLCQRPDGALYGSLHFDPEACSFRELLLEDGYNVYQSEAHGLPLHLPGNKSPHRDPAPRGPARFLPLPGLPPALPEPPGILAPQPPDVGSSDPLSMVGASQGRSPSYAS | – | – | – | % maximal activity, Erk1/2 phosphorylation in 293T HEK hKLB cells (FIG. 9A) (human Klotho β [7]): 100%
PPDVGSSDPLSMVGPSQGRAPSYAS [FGF21 25mer A20] | 2.21 | 73.5 | 3.23 µM | –
PPDVGSSDPLSMVGPSQGASPSYAS [FGF21 25mer A19] | – | 100 | 102 nM | IC-50 of antagonism of FGF21 (pErk1/2, 293 HEK hKLB cells) (human Klotho β [5]): 0.1 µM
PPDVGSSDPASMVGPSQGRSPSYAS [FGF21 25mer A10] | 2.75 | 76 | 3.32 µM | –
PPDAGSSDPLSMVGPSQGRSPSYAS [FGF21 25mer A4] | 2.69 | 63.6 | 5.93 µM | –
